We go through two molecules from publication PMC3072105 (Nature Communications, 2011).

The target in assay [1] is full-length KvAP-T225C (Aeropyrum pernix). As to the kind of experiment: cross-linking.
Assay [2] concerns the target T1, KvAP channel from Aeropyrum pernix, wild type (Aeropyrum pernix, UniProt Q9YDF8 14-295).
T1 sequence (looked up): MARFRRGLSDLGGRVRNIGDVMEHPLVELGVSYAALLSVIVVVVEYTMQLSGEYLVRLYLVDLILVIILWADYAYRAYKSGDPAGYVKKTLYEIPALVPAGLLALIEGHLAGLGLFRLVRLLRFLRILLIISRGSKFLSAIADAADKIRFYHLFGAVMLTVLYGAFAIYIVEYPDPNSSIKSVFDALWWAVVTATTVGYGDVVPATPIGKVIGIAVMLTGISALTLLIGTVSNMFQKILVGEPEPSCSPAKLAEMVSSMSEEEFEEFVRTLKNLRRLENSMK
Nature of the assay: electrophysiology.

Broadly, the stoichiometry N is the number of molecules, sites or subunits per partner or assembly. Molecule “full-length KvAP-T225C (natural protein)” gave a stoichiometry N in assay [1] of 4.
Usually Kd stands for the equilibrium constant for the complex coming apart. The molecule GNHAEIYSNHHMMSHVGGGR [synthetic φD peptide] registered a Kd in assay [2] of 21.2 ± 3.5 µM.
